In patent US20220204643A1 (published 2022):
One block for each binder: values may come before it.

How the values were obtained:
[1] = molecular target: T1, SATB homeobox 2, transcript variant 2 (human, UniProt Q9UPW6 1-733)
T1 construct: HuProt array protein, full-length recombinant from yeast; also called SATB2
T1 sequence: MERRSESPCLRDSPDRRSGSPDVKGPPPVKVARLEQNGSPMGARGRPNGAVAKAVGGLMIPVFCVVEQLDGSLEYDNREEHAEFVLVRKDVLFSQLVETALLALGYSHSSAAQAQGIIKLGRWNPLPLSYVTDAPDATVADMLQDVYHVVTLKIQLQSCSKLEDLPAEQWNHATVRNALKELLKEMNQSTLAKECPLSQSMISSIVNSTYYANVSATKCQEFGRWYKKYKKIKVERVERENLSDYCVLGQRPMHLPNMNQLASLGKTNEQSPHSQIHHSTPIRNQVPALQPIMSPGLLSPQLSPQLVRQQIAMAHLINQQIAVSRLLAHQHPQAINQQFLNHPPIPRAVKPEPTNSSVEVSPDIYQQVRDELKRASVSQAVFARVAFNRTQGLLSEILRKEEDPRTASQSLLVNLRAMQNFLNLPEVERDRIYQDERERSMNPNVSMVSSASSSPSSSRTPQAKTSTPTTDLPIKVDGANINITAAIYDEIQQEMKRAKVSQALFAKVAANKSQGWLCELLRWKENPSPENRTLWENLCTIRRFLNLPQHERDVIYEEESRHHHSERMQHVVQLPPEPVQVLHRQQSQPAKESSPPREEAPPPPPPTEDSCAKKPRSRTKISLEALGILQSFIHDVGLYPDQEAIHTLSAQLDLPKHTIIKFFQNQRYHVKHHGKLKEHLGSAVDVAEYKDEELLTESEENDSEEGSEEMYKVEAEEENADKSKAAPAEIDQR

[2] = molecular target: T2, ganglioside induced differentiation associated protein 1, transcript variant 2 (human, UniProt Q8TB36 69-358)
T2 construct: HuProt array protein, full-length recombinant from yeast; also called GDAP1
T2 sequence: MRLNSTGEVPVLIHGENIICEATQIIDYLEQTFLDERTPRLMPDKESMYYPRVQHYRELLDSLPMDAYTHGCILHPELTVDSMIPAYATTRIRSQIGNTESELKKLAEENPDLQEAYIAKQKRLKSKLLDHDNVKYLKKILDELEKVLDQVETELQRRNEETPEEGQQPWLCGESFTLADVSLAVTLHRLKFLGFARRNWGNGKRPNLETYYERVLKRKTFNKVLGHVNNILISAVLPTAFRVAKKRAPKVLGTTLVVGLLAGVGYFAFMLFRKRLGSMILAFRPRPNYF

[3] = molecular target: T3, zinc finger protein 8 (human, UniProt P17098 1-575)
T3 construct: HuProt array protein, full-length recombinant from yeast; also called ZNF8

[4] = molecular target: T4, X-linked inhibitor of apoptosis, transcript variant 2 (human, UniProt P98170 1-497)
T4 construct: HuProt array protein, full-length recombinant from yeast; also called XIAP

[5] = molecular target: T5, butyrophilin subfamily 1 member A1 (human, UniProt Q13410 27-526)
T5 construct: HuProt array protein, full-length recombinant from yeast; also called BTN1A1
T5 sequence: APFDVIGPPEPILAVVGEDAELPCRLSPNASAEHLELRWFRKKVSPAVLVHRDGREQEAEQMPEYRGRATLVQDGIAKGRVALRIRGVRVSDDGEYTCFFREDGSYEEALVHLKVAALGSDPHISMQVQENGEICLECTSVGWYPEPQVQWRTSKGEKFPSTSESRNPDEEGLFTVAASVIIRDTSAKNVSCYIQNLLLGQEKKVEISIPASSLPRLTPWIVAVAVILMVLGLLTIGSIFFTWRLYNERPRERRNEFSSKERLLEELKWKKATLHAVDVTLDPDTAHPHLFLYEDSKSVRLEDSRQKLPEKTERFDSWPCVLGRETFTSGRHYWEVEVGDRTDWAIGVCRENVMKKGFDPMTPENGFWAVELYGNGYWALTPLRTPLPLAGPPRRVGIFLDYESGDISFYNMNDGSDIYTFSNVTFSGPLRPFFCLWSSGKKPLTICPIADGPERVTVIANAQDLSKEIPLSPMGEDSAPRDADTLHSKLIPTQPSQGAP

[6] = molecular target: T6, geminin DNA replication inhibitor, transcript variant 1 (human, UniProt O75496 1-209)
T6 construct: HuProt array protein, full-length recombinant from yeast; also called GMNN
T6 sequence: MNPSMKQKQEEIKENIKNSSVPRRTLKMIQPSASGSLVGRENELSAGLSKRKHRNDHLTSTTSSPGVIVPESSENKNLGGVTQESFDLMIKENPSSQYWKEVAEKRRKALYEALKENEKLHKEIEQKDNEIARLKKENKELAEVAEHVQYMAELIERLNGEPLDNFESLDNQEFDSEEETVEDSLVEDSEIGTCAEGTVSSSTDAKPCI

[7] = molecular target: T7, DEAD-box helicase 18 (human, UniProt Q9NVP1 1-670)
T7 construct: HuProt array protein, full-length recombinant from yeast; also called DDX18
T7 sequence: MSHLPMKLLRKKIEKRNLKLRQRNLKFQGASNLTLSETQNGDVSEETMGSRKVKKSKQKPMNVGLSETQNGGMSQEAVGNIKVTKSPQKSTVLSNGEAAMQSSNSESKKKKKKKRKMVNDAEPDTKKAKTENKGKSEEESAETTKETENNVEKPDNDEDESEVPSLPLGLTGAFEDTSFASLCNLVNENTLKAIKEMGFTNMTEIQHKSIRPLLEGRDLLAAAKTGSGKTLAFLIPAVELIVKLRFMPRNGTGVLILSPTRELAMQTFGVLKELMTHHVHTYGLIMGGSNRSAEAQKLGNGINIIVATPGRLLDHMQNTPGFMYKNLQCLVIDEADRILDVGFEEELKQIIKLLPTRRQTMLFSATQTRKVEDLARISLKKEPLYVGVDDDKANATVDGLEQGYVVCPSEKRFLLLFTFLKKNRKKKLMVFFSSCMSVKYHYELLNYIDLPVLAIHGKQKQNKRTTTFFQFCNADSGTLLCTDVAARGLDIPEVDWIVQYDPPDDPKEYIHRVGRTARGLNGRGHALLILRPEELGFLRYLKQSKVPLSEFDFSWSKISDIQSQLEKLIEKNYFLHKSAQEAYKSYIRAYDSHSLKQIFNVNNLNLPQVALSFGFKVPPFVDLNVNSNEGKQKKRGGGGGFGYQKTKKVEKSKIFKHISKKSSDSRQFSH

[8] = molecular target: T8, syntaxin 1A, transcript variant 1 (human, UniProt Q16623 1-288)
T8 construct: HuProt array protein, full-length recombinant from yeast; also called STX1A

[9] = molecular target: T9, endosome associated trafficking regulator 1, transcript variant 2 (human, UniProt Q96C92 59-435)
T9 construct: HuProt array protein, full-length recombinant from yeast; also called SDCCAG3
T9 chain: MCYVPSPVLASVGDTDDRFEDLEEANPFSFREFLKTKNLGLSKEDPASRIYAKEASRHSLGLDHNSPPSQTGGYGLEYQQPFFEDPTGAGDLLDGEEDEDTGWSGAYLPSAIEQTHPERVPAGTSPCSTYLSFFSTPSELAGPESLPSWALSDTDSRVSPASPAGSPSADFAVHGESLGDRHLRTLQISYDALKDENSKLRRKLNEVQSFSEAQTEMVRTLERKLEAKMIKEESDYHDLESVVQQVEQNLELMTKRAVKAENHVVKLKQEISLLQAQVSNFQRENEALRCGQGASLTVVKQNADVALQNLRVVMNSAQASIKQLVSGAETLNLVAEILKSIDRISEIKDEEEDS

[10] = molecular target: T10, charged multivesicular body protein 4B (human, UniProt Q9H444 2-224)
T10 construct: HuProt array protein, full-length recombinant from yeast; also called CHMP4B
T10 sequence: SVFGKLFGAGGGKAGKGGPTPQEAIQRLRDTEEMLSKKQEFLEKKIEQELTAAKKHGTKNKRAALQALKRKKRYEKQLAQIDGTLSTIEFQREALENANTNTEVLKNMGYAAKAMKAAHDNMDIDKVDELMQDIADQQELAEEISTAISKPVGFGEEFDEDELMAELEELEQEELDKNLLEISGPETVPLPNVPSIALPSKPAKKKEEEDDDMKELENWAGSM

[11] = molecular target: T11, FA complementation group G (human, UniProt O15287 1-622)
T11 construct: HuProt array protein, full-length recombinant from yeast; also called FANCG
T11 sequence: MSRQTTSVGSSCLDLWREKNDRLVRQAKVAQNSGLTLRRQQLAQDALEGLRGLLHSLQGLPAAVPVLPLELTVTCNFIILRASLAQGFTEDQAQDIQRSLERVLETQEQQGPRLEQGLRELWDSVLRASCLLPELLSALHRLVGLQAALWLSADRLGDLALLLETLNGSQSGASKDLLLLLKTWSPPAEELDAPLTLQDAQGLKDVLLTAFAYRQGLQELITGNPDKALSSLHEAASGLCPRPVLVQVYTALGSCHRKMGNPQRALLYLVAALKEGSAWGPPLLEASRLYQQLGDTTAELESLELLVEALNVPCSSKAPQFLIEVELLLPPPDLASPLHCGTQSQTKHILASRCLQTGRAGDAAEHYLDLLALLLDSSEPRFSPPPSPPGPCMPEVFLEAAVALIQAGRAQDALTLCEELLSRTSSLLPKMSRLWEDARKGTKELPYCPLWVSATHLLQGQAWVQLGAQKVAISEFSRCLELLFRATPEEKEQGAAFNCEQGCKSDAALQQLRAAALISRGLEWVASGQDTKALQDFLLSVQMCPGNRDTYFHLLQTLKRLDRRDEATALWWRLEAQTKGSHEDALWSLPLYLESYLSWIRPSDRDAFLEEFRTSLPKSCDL

T3 sequence (P17098 whole entry): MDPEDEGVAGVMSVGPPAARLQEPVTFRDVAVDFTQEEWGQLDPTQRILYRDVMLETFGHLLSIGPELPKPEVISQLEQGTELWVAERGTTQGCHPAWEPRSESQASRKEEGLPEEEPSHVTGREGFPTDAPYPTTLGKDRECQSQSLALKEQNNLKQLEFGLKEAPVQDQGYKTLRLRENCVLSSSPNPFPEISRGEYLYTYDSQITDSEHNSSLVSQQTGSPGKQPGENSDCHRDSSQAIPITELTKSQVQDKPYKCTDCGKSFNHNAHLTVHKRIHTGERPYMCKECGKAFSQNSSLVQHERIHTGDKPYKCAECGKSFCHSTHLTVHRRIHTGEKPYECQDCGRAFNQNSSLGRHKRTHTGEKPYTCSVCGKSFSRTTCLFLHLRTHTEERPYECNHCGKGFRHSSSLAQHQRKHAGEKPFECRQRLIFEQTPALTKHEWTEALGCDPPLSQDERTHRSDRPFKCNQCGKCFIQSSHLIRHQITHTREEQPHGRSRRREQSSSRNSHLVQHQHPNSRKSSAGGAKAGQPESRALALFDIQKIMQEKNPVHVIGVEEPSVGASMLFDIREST
T4 sequence (P98170 whole entry, change not shown): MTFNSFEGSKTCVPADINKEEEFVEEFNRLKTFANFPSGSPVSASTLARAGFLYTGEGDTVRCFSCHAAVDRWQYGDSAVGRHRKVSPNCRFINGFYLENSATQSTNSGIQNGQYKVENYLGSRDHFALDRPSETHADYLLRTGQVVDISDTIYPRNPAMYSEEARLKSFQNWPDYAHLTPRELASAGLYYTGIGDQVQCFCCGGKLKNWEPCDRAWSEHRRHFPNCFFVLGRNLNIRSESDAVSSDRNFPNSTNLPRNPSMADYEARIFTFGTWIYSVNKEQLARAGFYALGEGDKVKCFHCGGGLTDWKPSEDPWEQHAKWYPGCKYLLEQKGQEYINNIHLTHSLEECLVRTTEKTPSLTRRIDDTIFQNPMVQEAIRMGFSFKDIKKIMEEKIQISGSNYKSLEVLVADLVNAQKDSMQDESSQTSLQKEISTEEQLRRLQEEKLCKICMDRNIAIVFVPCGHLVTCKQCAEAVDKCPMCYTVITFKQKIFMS
T8 sequence (Q16623 whole entry, change not shown): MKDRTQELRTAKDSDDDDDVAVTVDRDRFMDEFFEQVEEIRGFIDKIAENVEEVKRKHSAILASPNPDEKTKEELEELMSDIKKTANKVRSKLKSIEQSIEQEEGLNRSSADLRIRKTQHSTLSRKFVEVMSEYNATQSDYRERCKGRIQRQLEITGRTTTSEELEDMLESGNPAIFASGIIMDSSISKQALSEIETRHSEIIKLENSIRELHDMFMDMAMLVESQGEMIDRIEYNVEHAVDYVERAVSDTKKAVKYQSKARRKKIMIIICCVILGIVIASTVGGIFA

binding result [1]: binds
binding result [2]: binds
binding result [3]: binds
B1: TBRE1017 (antibody, V domains shown)
VH: QVQLVQSGAEVKKPGASVKVSCKASGYNFRDYYMHWVRQAPGQGLEWMGWINPNSGGTISAQNFQGRVTMTRDTSISTAYMEVNSLRSDDTAVYYCAVGMVTDGFEIWGQGTLVTVSS
VL: PYELTQPPSVSVSPGQTARITCSGDALPNENAFWYQQKPGQAPVLVIYEDIKRPSGIPERFSGSSSGTTVTLTISGVQAEDEADYYCQSVDITSTWVFGGGTKLTVLG
notes: detected with anti-human IgG Fc

binding result [4]: binds
B2: TBRE1032 (antibody, V domains shown)
VH: EVQLVESGGGLVQPGGSLRLSCAASGFTFSSYDFHWVRQPTGKGLEWVSAIGTAGDTLYLDSVKGRFTISRENAKNSLYLQMNSLRAGDTAVYYCARVNWNSDTFDSWGQGTLVTVSS
VL: VSSELTQDPAVSVALGQTVRITCQGDSLRRYYASWYQQKAGQAPILVIYGENNRPSGIPDRFSGSGSGNTASLTITGAQAEDEADYYCDSRDSSGNLVVFGGGTKLTVL
notes: as for B1

binding result [5]: binds
B3: TBRE1013 (antibody, V domains shown)
VH: EVQLVESGGGLVKPGGSLRLSCAGSGFSFSSYSMNWVRQAPGKGLEWVSSISSKSSSKNYIDSVKNRFIISRDNAKNSLYLQMNSLRAEDTAVYYCARDLELIIAAGAPLDHWGQGTLVTVSS
VL: DIQMTQSPSSLSASVGDRVTITCRASQSIKNYVNWYQQKPGEAPNLLIFAASNLQSGVPSRFTGSGSGTDFSLTISSLQPEDFAAYYCQQTYSHPRTFGQGTRVEIKR
notes: as for B1

binding result [6]: binds
binding result [7]: binds
binding result [8]: binds
B4: TBRE1027 (antibody, V domains shown)
VH: EVQLLESGGGLVQPGGSLRLSCAASGFTFSSYAMSWVRQAPGKGLEWVSTISGSGHSTYYADSVKGRFTISRDNSKNTLYLQMNSLRAEDTAVYYCAKSTLGGGFDFWGQGTLVTVSS
VL: DIQMTQSPFSLSASVGDRVTITCRASQSISSYLNWYQQKPGKAPKLLIYAASSLQSGVPSRFSGSGSGTDFTLTISSLQPEDFATYYCHQSYSTSLTFGGGTKVEIKR
notes: as for B1

binding result [9]: binds
binding result [10]: binds
B5: TBRE1034 (antibody, V domains shown)
VH: QVQLVESGGGLVEPGGSLRLSCAASGFTFSDYYMSWIRQAPGKRLEWISHMSSGGNRRHYADSVRGRFTISRDNAKNSLYLQMNSMRADDTAVYYCARDKRSGMTSDRRIDYWGQGTRVTVSS
VL: DIQMTQSPSSLSASVGDRITITCRASQSVGTYLSWFQQKPGKAPKLLIYAASSLQSGVPSRFSGSGSGTDFTLTISSLQPEDFATYFCQQSYSVPPWTFGQGTKVEIKR
notes: as for B1

binding result [11]: binds
B6: TBRE1024 (antibody, V domains shown)
VH: PVQLQESGPGLVKPSETLSLTCTVSGGSISSDNYYWSWLRQHPGKGLEWIGYIYFSVTTYYNPSLKSRVTISLDTSKNQFSLKLSSVTAADTAVYYCASGYVSFDLWGQGTLVTVSS
VL: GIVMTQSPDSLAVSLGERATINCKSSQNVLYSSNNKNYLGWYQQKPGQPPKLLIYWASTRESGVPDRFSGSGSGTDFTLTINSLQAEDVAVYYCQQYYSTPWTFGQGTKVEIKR
notes: as for B1
